Test results from doi:10.1101/2021.04.09.439147 (bioRxiv, 2021).

Molecular target: T1, SARS-CoV-2 S1 subunits-His tag (SARS-CoV-2, reference assumed, UniProt P0DTC2)
T1 construct: source: bought: Sino Biological
Test: ELISA
Conditions: both partners purified

B1: FLAG-tagged K-874A (VHH)
VHH: EVQLVESGGGQVETGGSLRLSCQASGSTFSDYVMAWFRQRPGKEREFVATISRNGGTTTYGSSVKGRFTISRDNAKSTVYLQMNSLKPEDTAVYYCYAVGGDGDSWGQGTQVTVSS
notes: also called CoVHH1-FLAG
binding result: binds
